{
  "source": "paper PMC7374751",
  "data": [
    {"target": "TIMP-2 (Homo sapiens) (UniProt P16035)", "test": "not given", "conditions": "cited from earlier work", "units": {"Ki": "nM"}, "values": [
      {"substance": "MMP-1 (from UniProt P03956)", "Ki": 1.03}
    ]},
    {"target": "TIMP-1 (Homo sapiens) (UniProt P01033)", "test": "not given", "conditions": "cited from earlier work", "units": {"Ki": "nM"}, "values": [
      {"substance": "MMP-1 (from UniProt P03956)", "Ki": 0.38}
    ]},
    {"target": "low-density lipoprotein receptor-related protein 1 (LRP-1) (UniProt Q07954)", "sequence (Q07954 20-4544)": "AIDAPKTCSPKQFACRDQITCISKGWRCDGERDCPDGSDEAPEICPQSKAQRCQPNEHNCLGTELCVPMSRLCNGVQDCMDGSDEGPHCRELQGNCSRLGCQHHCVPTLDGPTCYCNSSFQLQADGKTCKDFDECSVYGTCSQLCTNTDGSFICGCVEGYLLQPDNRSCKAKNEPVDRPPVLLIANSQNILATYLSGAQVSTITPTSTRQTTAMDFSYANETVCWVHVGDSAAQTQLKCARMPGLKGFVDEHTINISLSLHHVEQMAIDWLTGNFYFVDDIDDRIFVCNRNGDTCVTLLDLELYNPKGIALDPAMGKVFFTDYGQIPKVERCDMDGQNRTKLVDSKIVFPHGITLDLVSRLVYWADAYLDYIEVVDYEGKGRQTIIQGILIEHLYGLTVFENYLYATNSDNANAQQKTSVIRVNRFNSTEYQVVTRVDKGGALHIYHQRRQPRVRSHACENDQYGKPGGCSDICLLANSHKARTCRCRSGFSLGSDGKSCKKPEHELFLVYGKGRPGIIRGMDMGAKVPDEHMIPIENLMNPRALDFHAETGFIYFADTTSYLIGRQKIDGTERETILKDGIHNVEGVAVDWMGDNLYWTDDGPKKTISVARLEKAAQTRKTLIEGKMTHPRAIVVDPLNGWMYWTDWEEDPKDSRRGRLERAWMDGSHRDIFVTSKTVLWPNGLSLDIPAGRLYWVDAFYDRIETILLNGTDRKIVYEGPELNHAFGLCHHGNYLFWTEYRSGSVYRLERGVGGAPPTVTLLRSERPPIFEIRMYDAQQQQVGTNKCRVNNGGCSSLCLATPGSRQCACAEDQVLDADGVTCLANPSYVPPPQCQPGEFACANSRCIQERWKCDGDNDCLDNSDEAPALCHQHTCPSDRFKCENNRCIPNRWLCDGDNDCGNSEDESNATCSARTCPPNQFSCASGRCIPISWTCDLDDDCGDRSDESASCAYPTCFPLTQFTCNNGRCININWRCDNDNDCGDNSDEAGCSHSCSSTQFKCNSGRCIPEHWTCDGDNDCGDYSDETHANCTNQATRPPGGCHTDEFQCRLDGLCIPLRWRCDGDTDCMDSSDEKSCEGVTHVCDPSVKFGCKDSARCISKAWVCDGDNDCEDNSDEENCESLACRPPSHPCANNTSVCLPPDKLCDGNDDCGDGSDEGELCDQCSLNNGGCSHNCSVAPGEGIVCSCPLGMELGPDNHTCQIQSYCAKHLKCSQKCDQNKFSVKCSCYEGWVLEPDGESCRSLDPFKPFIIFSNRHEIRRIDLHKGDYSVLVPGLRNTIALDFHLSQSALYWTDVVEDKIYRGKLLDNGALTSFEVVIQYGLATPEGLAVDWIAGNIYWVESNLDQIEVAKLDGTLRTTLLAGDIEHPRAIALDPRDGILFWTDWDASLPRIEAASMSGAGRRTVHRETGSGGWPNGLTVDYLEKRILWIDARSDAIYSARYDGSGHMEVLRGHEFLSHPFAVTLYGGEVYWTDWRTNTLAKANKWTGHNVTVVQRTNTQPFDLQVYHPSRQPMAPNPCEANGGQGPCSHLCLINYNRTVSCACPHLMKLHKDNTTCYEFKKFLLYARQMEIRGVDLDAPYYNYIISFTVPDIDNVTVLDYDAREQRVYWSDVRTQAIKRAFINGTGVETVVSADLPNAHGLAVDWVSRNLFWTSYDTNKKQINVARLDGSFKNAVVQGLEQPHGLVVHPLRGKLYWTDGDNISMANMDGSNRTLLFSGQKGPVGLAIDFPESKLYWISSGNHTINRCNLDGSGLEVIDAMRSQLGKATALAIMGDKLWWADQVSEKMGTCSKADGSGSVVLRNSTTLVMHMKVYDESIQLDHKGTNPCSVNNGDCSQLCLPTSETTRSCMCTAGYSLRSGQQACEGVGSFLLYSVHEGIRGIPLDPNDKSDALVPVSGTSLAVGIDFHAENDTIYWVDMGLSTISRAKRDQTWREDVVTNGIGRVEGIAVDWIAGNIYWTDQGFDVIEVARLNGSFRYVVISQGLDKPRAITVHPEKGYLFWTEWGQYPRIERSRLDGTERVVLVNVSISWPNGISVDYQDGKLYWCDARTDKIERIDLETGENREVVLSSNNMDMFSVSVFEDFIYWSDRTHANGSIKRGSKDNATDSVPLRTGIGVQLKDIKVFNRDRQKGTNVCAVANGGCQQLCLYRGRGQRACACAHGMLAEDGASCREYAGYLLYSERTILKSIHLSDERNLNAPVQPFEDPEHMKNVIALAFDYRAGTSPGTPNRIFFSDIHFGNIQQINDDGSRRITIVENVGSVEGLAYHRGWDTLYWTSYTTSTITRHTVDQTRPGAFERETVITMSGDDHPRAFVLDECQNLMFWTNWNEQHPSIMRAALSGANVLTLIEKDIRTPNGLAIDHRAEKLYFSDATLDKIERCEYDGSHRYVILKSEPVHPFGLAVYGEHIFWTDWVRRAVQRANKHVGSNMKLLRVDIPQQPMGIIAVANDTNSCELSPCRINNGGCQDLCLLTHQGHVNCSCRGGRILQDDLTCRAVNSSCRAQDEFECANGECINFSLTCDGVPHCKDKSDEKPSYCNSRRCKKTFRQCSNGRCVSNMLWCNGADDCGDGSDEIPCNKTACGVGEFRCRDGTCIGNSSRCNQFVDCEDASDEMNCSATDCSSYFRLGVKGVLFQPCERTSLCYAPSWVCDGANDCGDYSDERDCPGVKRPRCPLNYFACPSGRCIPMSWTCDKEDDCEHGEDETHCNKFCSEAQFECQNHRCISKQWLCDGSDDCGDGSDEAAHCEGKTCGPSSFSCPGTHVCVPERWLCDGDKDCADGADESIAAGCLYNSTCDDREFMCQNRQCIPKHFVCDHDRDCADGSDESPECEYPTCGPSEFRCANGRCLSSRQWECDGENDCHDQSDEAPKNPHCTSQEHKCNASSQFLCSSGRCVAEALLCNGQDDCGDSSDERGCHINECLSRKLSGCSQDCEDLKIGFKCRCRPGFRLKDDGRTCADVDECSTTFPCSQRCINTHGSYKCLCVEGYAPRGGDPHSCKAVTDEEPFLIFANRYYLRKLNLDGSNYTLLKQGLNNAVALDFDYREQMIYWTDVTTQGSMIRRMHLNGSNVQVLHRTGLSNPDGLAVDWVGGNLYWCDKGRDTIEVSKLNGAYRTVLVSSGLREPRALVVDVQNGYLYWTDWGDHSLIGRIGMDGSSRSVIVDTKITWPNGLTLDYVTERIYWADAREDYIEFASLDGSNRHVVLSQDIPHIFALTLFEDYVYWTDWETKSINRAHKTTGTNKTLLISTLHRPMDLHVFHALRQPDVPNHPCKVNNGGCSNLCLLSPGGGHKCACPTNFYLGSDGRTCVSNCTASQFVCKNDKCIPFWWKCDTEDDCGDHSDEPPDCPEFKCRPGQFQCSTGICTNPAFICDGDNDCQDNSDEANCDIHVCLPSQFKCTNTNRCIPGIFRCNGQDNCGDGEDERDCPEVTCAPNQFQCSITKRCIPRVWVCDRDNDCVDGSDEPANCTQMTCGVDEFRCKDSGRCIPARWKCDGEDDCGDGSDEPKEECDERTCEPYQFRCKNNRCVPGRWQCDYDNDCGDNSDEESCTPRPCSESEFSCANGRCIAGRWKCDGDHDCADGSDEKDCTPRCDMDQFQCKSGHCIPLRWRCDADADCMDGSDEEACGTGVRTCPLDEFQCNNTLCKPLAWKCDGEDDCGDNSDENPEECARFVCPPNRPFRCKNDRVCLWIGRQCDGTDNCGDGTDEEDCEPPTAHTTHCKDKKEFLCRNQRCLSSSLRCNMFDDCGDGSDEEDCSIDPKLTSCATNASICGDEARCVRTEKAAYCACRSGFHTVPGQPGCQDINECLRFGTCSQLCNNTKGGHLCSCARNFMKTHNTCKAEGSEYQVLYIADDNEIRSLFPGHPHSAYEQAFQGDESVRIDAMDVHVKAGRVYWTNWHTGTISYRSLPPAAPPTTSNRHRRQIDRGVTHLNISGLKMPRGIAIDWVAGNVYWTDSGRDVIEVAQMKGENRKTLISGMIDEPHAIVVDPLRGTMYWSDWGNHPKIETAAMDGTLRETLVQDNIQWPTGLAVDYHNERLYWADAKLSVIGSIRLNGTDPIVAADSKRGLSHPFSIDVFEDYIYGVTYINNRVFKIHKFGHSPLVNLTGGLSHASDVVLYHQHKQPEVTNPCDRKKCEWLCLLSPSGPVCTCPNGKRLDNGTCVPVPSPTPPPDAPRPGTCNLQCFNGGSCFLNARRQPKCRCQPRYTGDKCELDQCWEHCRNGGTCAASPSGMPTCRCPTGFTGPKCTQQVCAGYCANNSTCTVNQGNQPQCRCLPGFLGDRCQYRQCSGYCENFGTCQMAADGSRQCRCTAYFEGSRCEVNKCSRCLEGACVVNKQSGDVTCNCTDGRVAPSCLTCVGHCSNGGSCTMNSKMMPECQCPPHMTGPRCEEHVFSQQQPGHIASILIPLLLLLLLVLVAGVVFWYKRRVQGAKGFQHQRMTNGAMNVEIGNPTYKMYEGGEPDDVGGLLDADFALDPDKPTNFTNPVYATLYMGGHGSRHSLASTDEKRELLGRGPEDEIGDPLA", "test": "not given", "conditions": "not given", "units": {"decrease in clearance of 10 nM intact [35S]MMP-1 from the conditioned medium of HTB94 cells, 0-24 h": "%"}, "values": [
      {"substance": "full length MMP-1 (enzyme)", "decrease in clearance of 10 nM intact [35S]MMP-1 from the conditioned medium of HTB94 cells, 0-24 h": 20}
    ]},
    {"target": "TIMP-3 (Homo sapiens) (UniProt P35625)", "test": "not given", "conditions": "cited from earlier work", "units": {"Ki": "nM"}, "values": [
      {"substance": "MMP-1 (from UniProt P03956)", "Ki": 1.1}
    ]},
    {"target": "low-density lipoprotein receptor-related protein 1 (LRP-1) (UniProt Q07954)", "test": "SPR; BIAcore T200; LRP-1 immobilised on a CM5 chip by amine coupling (3000 RU); 25 °C; 150 mM NaCl, 10 mM CaCl2, 50 mM Tris-HCl, 0.01% Tween-20, pH 7.5; 30 μl/min; ligands or pre-formed complexes injected; one-site binding model; triplicate", "conditions": "not given", "units": {"Kd": "nM", "koff": "s⁻¹", "kon": "M⁻¹ s⁻¹"}, "values": [
      {"substance": "MMP-1/TIMP-3 complex (from UniProt P35625 24-211)", "Kd": 4.96, "koff": 0.00228, "kon": 461000},
      {"substance": "MMP-1 (E200A), catalytically inactive form of MMP-1 (enzyme)", "Kd": 34.6, "koff": 0.00468, "kon": 136000},
      {"substance": "MMP-13/TIMP-2 complex (from UniProt P45452 20-471; P16035 27-220)", "Kd": 5.59, "koff": 0.00241, "kon": 431000},
      {"substance": "MMP-13/TIMP-1 complex (from UniProt P45452 20-471; P01033 24-207)", "Kd": 10.6, "koff": 0.00345, "kon": 326000},
      {"substance": "MMP-1/N-TIMP-3 complex", "Kd": 4.3, "koff": 0.00246, "kon": 573000},
      {"substance": "MMP-1/TIMP-1 complex (from UniProt P01033 24-207)", "Kd": 16.5, "koff": 0.0064, "kon": 390000},
      {"substance": "MMP-13 (E204A), catalytically inactive mutant (enzyme)", "Kd": 25.6, "koff": 0.00598, "kon": 234000},
      {"substance": "MMP-13/TIMP-3 complex (from UniProt P45452 20-471; P35625 24-211)", "Kd": 3.35, "koff": 0.00295, "kon": 882000},
      {"substance": "MMP-1/TIMP-2 complex (from UniProt P16035 27-220)", "Kd": 7.8, "koff": 0.00327, "kon": 419000}
    ]},
    {"target": "LRP-1 (Homo sapiens) (UniProt Q07954)", "sequence (Q07954 20-4544)": "as above", "test": "not given", "conditions": "cited from earlier work", "units": {"Kd": "nM"}, "values": [
      {"substance": "RAP (from UniProt P30533)", "Kd": 1.4}
    ]}
  ]
}
